Laboratory results as given in paper doi:10.1101/2025.06.09.658552.
Where “and” joins values, the source holds several entries; their conditions need not be identical. Equal entries are not always repeated. Where two headings read alike, the source gives them in different places.

Legend:
[1] = target: alpha/beta-tubulin (Saccharomyces cerevisiae) (UniProt P09733); settings: cited from earlier work
[2] = target: alpha/beta-tubulin (Saccharomyces cerevisiae) (UniProt P09733); settings: cited from earlier work; remark: listed apart in the source
[3] = target: biotinylated polymerization-blocked yeast αβ-tubulin, LR1 (β: T175R,V179R) (yeast) (UniProt P09733); test: BLI; biotinylated polymerization-blocked tubulin immobilised on streptavidin (SA) biosensors, OctetR8; TOG2 2.3 to 200 nM in solution; 90 mM PIPES, 10 mM NaCl, 1 mM MgCl2, 1 mM EGTA, 1 mM GTP, 0.1% BSA, 0.005% triton X-100; association 300 s, dissociation 300 s; 1:1 model, global kinetic fit and steady-state amplitudes

Molecule: Stu2 TOG2 (from UniProt P46675)
- Kd [1]: 160 nM

Molecule: Stu2 TOG1 (from UniProt P46675)
- Kd [2]: 70 nM

B1: Stu2-TOG2 (318–560) (domain or fragment)
chain: MLPEETILDKLPKDFQERITSSKWKDRVEALEEFWDSVLSQTKKLKSTSQNYSNLLGIYGHIIQKDANIQAVALAAQSVELICDKLKTPGFSKDYVSLVFTPLLDRTKEKKPSVIEAIRKALLTICKYYDPLASSGRNEDMLKDILEHMKHKTPQIRMECTQLFNASMKEEKDGYSTLQRYLKDEVVPIVIQIVNDTQPAIRTIGFESFAILIKIFGMNTFVKTLEHLDNLKRKKIEETVKTL
- Kd [3]: 8.9 nM and 9.6 nM
- koff [3]: 0.03 s⁻¹
- kon [3]: 3.2e+06 M⁻¹ s⁻¹
